This is an account of results in PMC5897047.

The term Ki denotes a measure of affinity in units of concentration, obtained from inhibition or displacement.

Sequences and labels used below:
B1: yeast non hypusine-containing eIF5A (eIF5A-Lys), wild type (natural protein)
chain: MSDEEHTFETADAGSSATYPMQCSALRKNGFVVIKSRPCKIVDMSTSKTGKHGHAKVHLVAIDIFTGKKLEDLSPSTHNMEVPVVKRNEYQLLDIDDGFLSLMNMDGDTKDDVKAPEGELGDSLQTAFDEGKDLMVTIISAMGEEAAISFKEAARTD
B2: yeast hypusine-containing eIF5A (eIF5A-Hyp), wild type (natural protein)
chain: MSDEEHTFETADAGSSATYPMQCSALRKNGFVVIKSRPCKIVDMSTSKTGKHGHAKVHLVAIDIFTGKKLEDLSPSTHNMEVPVVKRNEYQLLDIDDGFLSLMNMDGDTKDDVKAPEGELGDSLQTAFDEGKDLMVTIISAMGEEAAISFKEAARTD
modifications: hypusine at Lys51
B3: non hypusine-containing eIF5A from mutant tif51A-4 (K86A/R87A/E89A) (natural protein)
chain: MSDEEHTFETADAGSSATYPMQCSALRKNGFVVIKSRPCKIVDMSTSKTGKHGHAKVHLVAIDIFTGKKLEDLSPSTHNMEVPVVAANAYQLLDIDDGFLSLMNMDGDTKDDVKAPEGELGDSLQTAFDEGKDLMVTIISAMGEEAAISFKEAARTD
B4: hypusine-containing eIF5A from mutant tif51A-4 (K86A/R87A/E89A) (natural protein)
chain: MSDEEHTFETADAGSSATYPMQCSALRKNGFVVIKSRPCKIVDMSTSKTGKHGHAKVHLVAIDIFTGKKLEDLSPSTHNMEVPVVAANAYQLLDIDDGFLSLMNMDGDTKDDVKAPEGELGDSLQTAFDEGKDLMVTIISAMGEEAAISFKEAARTD
modifications: hypusine at Lys51

For the test, the target named is yeast 80S ribosome (S. cerevisiae (endogenous in yeast)) (UniProt P26321). The test can be described thus: fluorescence polarisation. In general terms: Polarisation of emitted light reports the rotation of a fluorescent probe.
UniProt P26321, sequence (P26321 whole entry, looked up): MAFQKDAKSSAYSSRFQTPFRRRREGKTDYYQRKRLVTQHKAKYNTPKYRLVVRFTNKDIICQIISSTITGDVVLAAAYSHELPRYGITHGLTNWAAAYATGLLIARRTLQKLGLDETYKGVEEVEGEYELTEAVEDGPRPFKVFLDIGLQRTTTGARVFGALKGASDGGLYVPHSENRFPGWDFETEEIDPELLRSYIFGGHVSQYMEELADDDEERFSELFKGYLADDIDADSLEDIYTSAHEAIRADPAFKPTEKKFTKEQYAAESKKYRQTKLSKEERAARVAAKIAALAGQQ
For the molecule B1, the inhibition constant (Ki) was determined as 238 nM.
Consider B2, for which the Ki was determined as 8 nM.
Under B3 stands 388 nM; under B4, 171 nM.
